From article PMC11176301 (2024) come the findings set out here.

Assay [1] addresses T1, GAD65 peptide on HLA-DRA*01:01 / HLA-DRB1*04:01 (human).
T1 peptide: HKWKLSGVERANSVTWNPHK
The experiment in a line: proliferation.

Assay [2] addresses T2, Influenza A MP54 (influenza M protein) peptide on HLA-DRA*01:01 / HLA-DRB1*04:01 (human).
T2 peptide: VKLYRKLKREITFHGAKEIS
The experiment in a line: activation reporter or marker.

Assay [3] has as its target T2, Influenza A MP54 (influenza M protein) …. The assay can be described thus: proliferation.

B1: P196-1 (TCR)
alpha TRAV29DV5 TRAJ45 CDR3: CAASRYSGGGADGLTF
beta TRBV12-4 TRBJ1-1 CDR3: CASSLQGGNTEAFF
Consider B1, for which the binding result in assay [1] and in assay [2] was “recognises” each time.

B2: Clone 81 (TCR)
alpha TRAV29DV5 TRAJ45 CDR3: CAASRYSGGGADGLTF
beta TRBV12-4 TRBJ1-1 CDR3: CASSPQGGNTEAFF
As for B2, the binding result in assay [1] and in assay [3] was “recognises” in each case.

B3: Clone 566 (TCR)
alpha TRAV29DV5 TRAJ45 CDR3: CAASRYSGGGADGLTF
beta TRBV12-4 TRBJ1-1 CDR3: CASSVQGGNTEAFF
With B3, the binding result in assay [1] and in assay [3] was “recognises” in each case.
